According to a protein production outcome set (Wang et al. 2014):

Experiment: label from the status in PepcDB records
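Note: failed if final PepcDB status was selected cloned or expressed and not failed if soluble or beyond.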

| Sequence | protein production |
| --- | --- |
| MNKMLYGWLLAACCGLPPAFAGDSVDVLAQPALHGPQALRAVLQDVARADARLVAVGERGVVLLSDDNGATWRQATAVPVGVSLTAVQFIDARNGWAVGHAGVVLHSQDGGEHWSVQLDGKRAAALEVQAAEAAADERRLAAAQRLLADGADKPLLALNFTDARNGLVVGAYGVAMRTDDGGRSWQSEIGRLPNGRGLHLYALARQGNQVYIAGEQGLLLRSRDGGEHYEALHGPYDGSYFAATVLPDGRLLLGGLRGSLFASDDGGDSFQALANPTPASINGLRVAGGQLLLANQAGMLLRSGLGAFAAQPVAVSDGLPLTAATTAADGSIVAVGMAGARRLEPSSLEHHHHHH | failed |
| MNKMNNNILKKNDLSSQEESTHEIQDVLDQLDFYTYKIALFLDIDGTLADFKIDPLACFISKKILKSIQDIQSKGCLVSVITGRDYNSAQKLLADVSLPIAALHGLDIHINEKTQLNAINQNNQIFIQNFLCRLKEEIKYQPDLSIENKHHSIALHYRKNPDLYDIAKHIMNTVKKDNDEFKVIEGKYVFELIPKNSNKGSAIKTLLSYFDAEHYLSIFIGDDITDEDGFNMVNQLEGISIKVGSGKTVARFRLKNIEHVEEFLNLLSHHFPDSSTQITKKYGEQHV | failed |
| MNKNLNTFTSMRNDRQLHLYLAWGCPFCHRILASLAITKLDDNISITWMENIKGEAGWKMYFIEDPLFNSDSLKAVYQQLEPTVEHRYSVPLLVDKKNNLLLSTSSPEIVRYVAKGFDDAFSVAYDLIPNKLIKDIDEMNQWLHDKINRAVYLVGFATQQSDYEYKLYELFKALDELEERLKKQLFLFGNQLTESDLYLLATLERFDNIYFCLFKCSLKRIADYPALFRYHNQLRGMESLASTYQPVLTKEHYFMSTMHVLGEARELNPSKIIPIDYYP | failed |
| MNKQNKQNKFSPEVRERSVRLVQEHRGEYPSLWAAVESIAPKIGCVPSTLLEWVKRSEINNGAREGLTSSERDRLKALERENRELRRANEILKTASAFFAQAELDRVLKKLEHHHHHH | not failed |
| MNKRAREWVSVGITWVQDVIYVALGILLTLACAVLLLHGGVNLVGALGRDLDLQVIVQLLDRILLAMMIVELLYTVKVSFRDHLLVPEPFLLVALIAAIRRILVITAEFGAQAPSGDEQFRHVMSELGLLTVLILVLVGSVVILRRRDSAEAPR | failed |
| MNKRRNHKTNKAKDSLSDEETKHDVLAQEVEGGDSSSDEDDVNIVLEPSSTYYGGDTSTGDSKGLFVGGTTTRHWQRPGYSSTAEGGIVGSGVSAYSRGGVDLSLVPKPPTDFPGAHVDYSVFENEIDSLEEKPWREKGAELSDYFNYGFTEDTWREYCRRQQMMRLYSQSLMPIRTLDSGGPLHNIDSPNEPSRKVPRGQQNRRLTPAYSTLRNNFDSKFYSDGNESFSSDYVRYSRPEQTDGDDVILTLTKPTSVDES | failed |
| MNKSTCLMAAETPSKRWRLHCLAFSQRFVRAGPACSSREACSSPRAGWNPAGFRLPGRWSPFVALHLVCQIREALKLRSGHRTPSGAGSSMQPPPSLCGRALVALVLACGLSRIWGEERGFPPDRATPLLQTAEIMTPPTKTLWPKGSNASLARSLAPAEVPKGDRTAGSPPRTISPPPCQGPIEIKETFKYINTVVSCLVFVLGIIGNSTLLRIIYKNKCMRNGPNILIASLALGDLLHIVIDIPINVYKLLAEDWPFGAEMCKLVPFIQKASVGITVLSLCALSIDRYRAVASWSRIKGIGVPKWTAVEIVLIWVVSVVLAVPEAIGFDIITMDYKGSYLRICLLHPVQKTAFMQFYKTAKDWWLFSFYFCLPLAITAFFYTLMTCEMLRKKSGMQIALNDHLKQRREVAKTVFCLVLVFALCWLPLHLSRILKLTLYNQNDPNRCELLSFLLVLDYIGINMASLNSCINPIALYLVSKRFKNCFKSCLCCWCQSFEEKQSLEEKQSCLKFKANDHGYDNFRSSNKYSSS | failed |
| MNKVQSIDPLIADKFNNELRSYNLEYKLEQESLNKEIDEALKNYASKNGGLGGNRPDVKLLLNTQDPNRRVPILIEYKGLKDKLIKLDKNKLVENFKNHEPHYKNIREYALNGALHYANAILHHTSYTECIAIGITGYKDNKGGICSQIAVYYVNKSNLGMGIDVSKGEQGYSDLSFLSRKHFNDFIKRVDTLSLSDEDLERIREKKNQEIEDCLMRLNNNIYNKEKNFLSEHNRVYLVIASIIANLGIPNLVTPLNKEDLKSSDEVHQRDGDIMLRKIQSFLENKDLSPEKRQSIISSLETLLRNENNNKATNGESCLKRCFSEIVDSLGIYYKIGLSTDFTGKLFNEMYRWLGFTKDQLNDVVLTPPYVATLLARLSKVNKDSFVWDFATGSAGLLVASMNLMIEDAKKRITSPEELEQKIAHIKAKQLLGIEILSDIHTLAVLNMILMGDGSSQILNQDGLSGFDGKVNNEAFKANAFVLNPPYSASGNGMVFVEQALEKMQSGYASVIIQSSAGSGKAKEYNVRILEKHTLLASIKMPLDLFIGKSSVQTHIYVFRVNEKHDAKQRVKFINFSNDGYARANRKKAKASHNLKDTHNAKERYNEVVDLVHIGQSCLKFLSEDDYYENTIDPKNGSDWNQNKPTDTKPELEDFKRTIADYLSYEVSLILKNQMPPKR | failed |
| MNKWLDLILKIHVHPFLWIIAALGLLTGHMKALLCLLLIVLIHELGHAALAVFFSWRIKRVFLLPFGGTVEVEEHGNRPLKEEFAVIIAGPLQHIWLQFAAWMLAEVSVIHQHTFELFTFYNLSILFVNLLPIWPLDGGKLLFLLFSKQLPFQKAHRLNLKTSLCFCLLLGCWVLFVIPLQISAWVLFVFLAVSLFEEYRQRHYIHVRFLLERYYGKNRELEKLLPLTVKAEDKVYHVMAEFKRGCKHPIIIEKSGQKLSQLDENEVLHAYFADKRTNSSMEELLLPY | failed |
| MNLEKHASPDSVIVIDDLLPQHMDYASRQRNTTIWTGDVYRLVPILRHYRPDLDIRVYDVDMKGFGLVTRLDPSSDVLAGNYGAIEADILAGKWSFPTAAAIRDHMQPRATDLLANDLGIIAARRTAKASKQSDRRAAPALPQRRPRLSVIICAYDMAREAPRTILSATAPYQKGLKEDEYEVIVVDNGSSTPLTYDNLPPNAQIVRAPDPRQSPVFALNWAAREIAKGEILLFAIDGARIFSERLIDETVKAHDRMEDAFVFSLSWHIGPKVQMQSVPEGYGAEIEDGLIRAVRWPDESDGLFGISVLAGSSSNGFFGDITESNSFSISRTLFDRHGGFDERFTSPGGGLANLEIFRRYVTRPDARNVCLLSEGTFHQVHDSVATSGKNRWEAFASEYEAIFGGPYLRPSYHCFYQGKPRAGMVPFILQSLQG | failed |
| MNLHQTVEHEAAAAFAAAGIAGSPVVLQPTKNAEHGDFQINGVMGAAKKAKQNPRELAQKVADALAGNAVIESAEVAGPGFINLRLRHEFLAQNIHAALNDARF | not failed |
| MNLKAMDAILEDCCDIVCSDYLPSAMIKSMCIVAERINNLNKAVSLFTSNPAKAVGIYDERGSIKENKKADLVLVDIDSEYPKVVNTIVNGKTVYKRELEHHHHHH | failed |
| MNLLLIVVFGAILEIAVWIGIAQFISGWYVFFWFIIAFFIGLSMLRSSTSSIMPQLQQMQMSGQMGNDPAVTKKLAVAMAGFLLMLPGVVSDILALLILIPGVQTLFRNALMKTLAKRQQAMMNKMMGGMMGGDVGGNAGQNPFEDLMRQMQNMQNQQGASPYNDSNVIDGEAREVKPDQKQIEHKDK | failed |
| MNLLYMVLIGQIILFLIGAMYAIGQTKKTRNNMPLPLAVRLILSFSLTASAIWIWLQDPSVDYSTWVALGMTLSTVGDLFMAGLIPIGHRLIGGMITFALAHCFYVKAFLQTGISWNGFWIGLLVYGLFLIIGWFFFIRNEKQDKLFTIGALIYGLWVGGMACFAFALYYENTGIWWIPAFGGLLFVISDFIIGVTDIGGRKLKYEPLWIWFTYVAAQMCIVYVGI | failed |
| MNLPKVKMLQVSKCLIGLAVMMLQSCDVADNRRDMLCGNWESVEGKPDVLIYKEGEAYKVTVFRRSGLRRKLKPETYLLQEENGNLFMNTGFRIDVSYNEATDVLTFSPNGDYVRVKPQPGHPTEE | failed |
| MNLRGILPFAHDTLRKVVRSGDYVVDATCGNGHDTLLLAELVGINGHVLGFDIQQLAIDATNTRLENAGVSSQVELVCASHARIPEYTSKPVRAAIFNLGYLPGGDKEITTTADSTLESIGHLMELLEVGGVIILVIYHGHPAGKQEKDAVMTFCEAIPQQDFHVLSYNFINQKNDAPFVIIIEKRKPRQSLEHHHHHH | not failed |
| MNLSFKIFDISNTQRSKAKKVQGKKYEIFLNENEHSLITPKVSFKEILRYYYLYPKNAIPSFKLPFFKPDLSGFSTPHITWLGHSSLFISFKEYKILIDPIFNTHASPISFINKAFKNAPVYNINDFNEIFAVIITHSHFDHLDAKSVKALKDKAKFFITPLKVGNYLKSYGVSEKKIIELDWWSGIEFGDLKIMATPAQHSSSRGDGKNKTLWASFVMEFLSVDKRVFFSADGGYFTHFKKIGEYFGSFDLACLESGQFNIAWPYSHSFPEQILKEAKDLNAKAVMPIHWGRFLAGTHAWNEVVKFLYENLDLPLITPKMGEAYEVGAKFKQDFWWKEELEHHHHHH | failed |
| MNLTELMERIPHLREILNIVREAFKDYDDPAHDISHTFRVMENASEIASREKCDLQKAIIAALLHDIKRPHEALTGVDHAESGAEYASGLLPTMGFDISFVAEVSKAIRSHRYSGGLTPTSLTGKILQDADRLDAIGAVAIARVFSYSGKTGTPLHSLQFSPRSSYSGNSRSSINHFHEKILKIRPETFWTETARKMAEDRYSFVVEFVQRFLAEWGQI | not failed |
| MNMIDQLNITDFQVFTDENSDKSVSKIYKFSSKMILSDFHAQPHGFLNGGASLALAEITAGMASNAIGSSQYFALGQSISANHLNSKKCEGFVNACGLLLKNGKRNHVWEIKITDENETLISQITVVNALVPQKNSDKLEHHHHHH | failed |
| MNMLALTILLPLIGFVLLAFSRGRWSENLSATVGMGSVGLAALVTAYVGVDFFANGKQAVSVPLWTWMSVGDFNIGFNLVLDGLSLTMLSVVTGVGFLIHMFASWYMRGEEGYSRFFAYTNLFIASMVVLVLADNLLLMYLGWEGVGLCSYLLIGFYYTDPKNGAAAMKAFVVTRVGDVFLAFALFILYNELGTLNFREMVELAPQHFANGSTTLQWATLMLLGGAVGKSAQLPLQTWLADAMAGPTPVSALIHAATMVTAGVYLIARTHGLFLMTPEVLHLVGIVGAVTLVLAGFAALVQTDIKRVLAYSTMSQIGYMFLALGVQAWDAAIFHLMTHAFFKALLFLSSGSVILACHHEQNIFKMGGLRKSIPLVYVCFLVGGAALSALPLITAGFFSKDEILAGAMANGHINLMVAGLVGAFMTSLYTFRMIFIVFHGKEQIHAHAGKGITHHLPLIVLLVLSTFVGALIVPPLEGVLPQTTELAHGSVMTLEIASGIIAIAGILIAAWLWLGKRTLVTSIANSAPGRFFGTWWFHAWGFDWLYDKVFVKPFLGIAWLLKRDPLNSLMNIPAILSRFAGKGLLVSENGYLRWYVASMSIGAVVVLALLMVLR | failed |
| MNMSTDRIERRIVLHAPRSRVWRALTNADEFGAWFRVDLAGQAFEAGRRVEGRITYPGYEHLVLQMRIERIEPEHHFSYRWHPAAVDPAVDYSQEAPTLVVFELADAEGGPLLTVVESGFDALPVERRADAFRMNSGGWDEQMTNIAAHVDAR | failed |
